Laboratory results from US20220119534A1 (DRAGONFLY THERAPEUTICS, published 2022).
Substitutions are numbered along the chain they refer to. Values joined by “and” are separate entries in the source; they are usually repeats but may differ in a detail not shown here. Identical values can stand only once. Like-named read-outs stand apart in the source and are kept apart here.

T1: cynomolgus CLEC12A expressed on RMA cells (cynomolgus monkey, UniProt A0A2K5WXQ4 7-271)
T1 construct: whole, on cells; also called cCLEC12A isogenic cell line
T1 sequence: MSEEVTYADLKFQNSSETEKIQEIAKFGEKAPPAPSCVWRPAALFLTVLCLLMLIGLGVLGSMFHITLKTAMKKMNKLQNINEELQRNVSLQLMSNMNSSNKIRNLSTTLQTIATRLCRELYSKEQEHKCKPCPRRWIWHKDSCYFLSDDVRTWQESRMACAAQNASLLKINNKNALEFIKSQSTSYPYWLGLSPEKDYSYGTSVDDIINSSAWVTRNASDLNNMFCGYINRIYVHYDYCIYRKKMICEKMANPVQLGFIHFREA

T2: recombinant cynomolgus CLEC12A-His (cynomolgus monkey, UniProt A0A2K5WXQ4 71-271)
T2 construct: also called cCLEC12A-His; cCLEC12A
T2 sequence: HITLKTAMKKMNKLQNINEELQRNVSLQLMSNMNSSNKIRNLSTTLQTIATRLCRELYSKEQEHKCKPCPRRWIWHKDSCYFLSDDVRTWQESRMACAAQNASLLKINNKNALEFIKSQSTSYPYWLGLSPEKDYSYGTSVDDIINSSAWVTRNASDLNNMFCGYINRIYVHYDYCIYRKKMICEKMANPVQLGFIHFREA

T3: recombinant human CLEC12A-His (human, UniProt Q5QGZ9 65-265)
T3 construct: also called hCLEC12A-His; hCLEC12A
T3 sequence: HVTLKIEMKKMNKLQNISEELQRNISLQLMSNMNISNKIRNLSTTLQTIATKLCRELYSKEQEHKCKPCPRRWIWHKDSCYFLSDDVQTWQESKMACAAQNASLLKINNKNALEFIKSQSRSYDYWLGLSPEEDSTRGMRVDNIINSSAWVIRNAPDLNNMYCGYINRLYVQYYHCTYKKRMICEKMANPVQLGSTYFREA

B1: 9E4.B7 (antibody, V domains shown)
VH: EVQLQESGAELMKPGASVKISCRTTGYTFSTYWIEWVKQRPGRGPEWIGELFPGNSDTTLNEKFTGKATFTADSSSNTAYMQLSSLTSEDSAVYYCARSGYYGSSLDYWGQGTTLTVSS
VL: GIVMTQSPASLSASVGETVTITCRAGENIHSYLAWYQQKQGKSPQLLVYNAKTLAEGVPSRFSGSGSGTQFSLKINSLQPEDFGSYYCQHHYGTPRTFGGGTKLEIK
notes: Murine mAb; also called 9E04
B2: 9F11.B7 (antibody, V domains shown)
VH: EVQLQESGGGLVQPGGSRKLSCAASGFTFNSFGMHWVRQAPEKGLEWVAFISSGSTSIYYANTVKGRFTISRDNPKNTLFLQMTSLRSEDTAMYYCARDGYPTGGAMDYWGQGTSVTVSS
VL: DIKMTQSPSSMYASLGERVTITCKASQDIYNYLSWFQLKPGKSPRPLIYRANILVSGVPSKFSGSGSGQDYSLTINSLEYEDLGIYYCLQFDAFPFTFGSGTKLEIK
notes: Murine mAb
B3: scFv-1602 displayed on yeast (scFv)
scFv: QLQLQESGPGLVKPSETLSLTCTVSGFSLTNYGLHWIRQPPGKCLEWIGVIWSGGKTDYNPSLKSRVTISKDTSKNQFSLKLSSVQAADTAVYYCAKYDYDDSLDYWGQGTLVTVSSGGGGSGGGGSGGGGSGGGGSDIQMTQSPSSLSASVGDRVTITCHASQNINFWLSWYQQKPGKAPKLLIYEASNLHTGVPSRFSGSGSGTRFTLTISSLQPEDIATYYCQQSHSYPLTFGCGTKLEIK
B4: F3'-1295 TriNKET (other)
chain: QLQLQESGPGLVKPSETLSLTCTVSGFSLTNYGLHWIRQPPGKCLEWIGVIWSGGKTDYNPSLKSRVTISKDTSKNQFSLKLSSVQAADTAVYYCAKYDYDDSLDYWGQGTLVTVSSGGGGSGGGGSGGGGSGGGGSDIQMTQSPSSLSASVGDRVTITCHASQNINFWLSWYQQKPGKIPKLLIYEASNLHTGVPSRFSGSGSGTRFTLTISSLQPEDIATYYCQQSHSYPLTFGCGTKLEIKGSDKTHTCPPCPAPELLGGPSVFLFPPKPKDTLMISRTPEVTCVVVDVSHEDPEVKFNWYVDGVEVHNAKTKPREEQYNSTYRVVSVLTVLHQDWLNGKEYKCKVSNKALPAPIEKTISKAKGQPREPRVYTLPPCRDELTKNQVSLTCLVKGFYPSDIAVEWESNGQPENNYKTTPPVLVSDGSFTLYSKLTVDKSRWQQGNVFSCSVMHEALHNHYTQKSLSLSPG
heavy: EVQLVESGGGLVKPGGSLRLSCAASGFTFSSYSMNWVRQAPGKGLEWVSSISSSSSYIYYADSVKGRFTISRDNAKNSLYLQMNSLRAEDTAVYYCARGAPIGAAAGWFDPWGQGTLVTVSSASTKGPSVFPLAPSSKSTSGGTAALGCLVKDYFPEPVTVSWNSGALTSGVHTFPAVLQSSGLYSLSSVVTVPSSSLGTQTYICNVNHKPSNTKVDKKVEPKSCDKTHTCPPCPAPELLGGPSVFLFPPKPKDTLMISRTPEVTCVVVDVSHEDPEVKFNWYVDGVEVHNAKTKPREEQYNSTYRVVSVLTVLHQDWLNGKEYKCKVSNKALPAPIEKTISKAKGQPREPQVCTLPPSRDELTENQVSLTCLVKGFYPSDIAVEWESNGQPENNYKTTPPVLDSDGSFFLYSWLTVDKSRWQQGNVFSCSVMHEALHNHYTQKSLSLSPG
light: DIQMTQSPSSVSASVGDRVTITCRASQGISSWLAWYQQKPGKAPKLLIYAASSLQSGVPSRFSGSGSGTDFTLTISSLQPEDFATYYCQQGVSFPRTFGGGTKVEIKRTVAAPSVFIFPPSDEQLKSGTASVVCLLNNFYPREAKVQWKVDNALQSGNSQESVTEQDSKDSTYSLSSTLTLSKADYEKHKVYACEVTHQGLSSPVTKSFNRGEC
B5: human CLEC12A expressed on cells (receptor)
chain: MSEEVTYADLQFQNSSEMEKIPEIGKFGEKAPPAPSHVWRPAALFLTLLCLLLLIGLGVLASMFHVTLKIEMKKMNKLQNISEELQRNISLQLMSNMNISNKIRNLSTTLQTIATKLCRELYSKEQEHKCKPCPRRWIWHKDSCYFLSDDVQTWQESKMACAAQNASLLKINNKNALEFIKSQSRSYDYWLGLSPEEDSTRGMRVDNIINSSAWVIRNAPDLNNMYCGYINRLYVQYYHCTYKKRMICEKMANPVQLGSTYFREA
notes: Transduced isogenic cells or endogenous expression on AML cells; also called RMA-hCLEC12A; Ba/F3-hCLEC12A
B6: AB0147 TriNKET (other)
chain: B4 chain with W52L, K56W, Y98G, D101G, S103A, I180A
heavy: B4 heavy
light: B4 light

Assays:
[1] = target: T1, cynomolgus CLEC12A expressed on RMA …; assay: flow cytometry, RMA-cCLEC12A, hybridoma supernatant
Protocol: Briefly, RMA cells were transducted with a retroviral vector encoding cCLEC12A or hCLEC12A. […] 100,000 RMA, REH or SEM cells were added per well of a 96 well round bottom plate. Cells were spun down and the pellet was gently dissociated by vortexing. 100 μL of Zombie live/dead dye (PBS+1:2000 dye) were added per well and incubated in the dark at room temperature for 20 minutes. Cells were washed with 200 μL of FACS buffer (PBS+2% FBS). 50 μL of hybridoma supernatants were added to the washed cells and the mixtures were incubated for 30 minutes on ice in the dark. Cells were washed twice with FACS buffer and then 50 μL of anti-mouse Fc-PE secondary reagent (1:200 dilution) were added and incubated for 20 minutes on ice in the dark. After the incubation, the cells were washed and then fixed with 50 μL of 4% paraformaldehyde for 15 minutes on ice. The fixed cells were washed with FACS buffer, resuspended in 200 μL FACS buffer, and stored at 4° C. until ready for acquisition. The samples of cells resuspended in FACS buffer were run on BD FACSCelesta equipped with an HTS (high throughput sampler) to determine the binding affinities of the antibodies to isogenic RMA cells expressing CLEC12A and the U937 AML cancer cell line.

[2] = target: T2, recombinant cynomolgus CLEC12A-His; assay: SPR, purified murine subclone mAb and Cyno CLEC12A-His
[3] = target: B5; assay: flow cytometry, PL21 cells
Protocol: The ability of the eight purified subcloned mAbs to bind to CLEC12A expressing cells was assessed by FACS analysis with human CLEC12A-positive PL21 cancer cell line.

[4] = target: T3, recombinant human CLEC12A-His; assay: SPR, purified murine mAb
[5] = target: B5; assay: flow cytometry (MFI) on CLEC12A+ PL-21 AML cells, about 0.2 to 130 nM, plateau about 250 MFI; the molecule is assigned by panel order and legend paragraph 296
[6] = target: T3, recombinant human CLEC12A-His; assay: SPR; sensorgrams of a CLEC12A concentration series with fit overlays (response up to about 18, time axis 0 to about 900)
[7] = target: T2, recombinant cynomolgus CLEC12A-His; assay: SPR, purified murine subclone mAb and Cyno CLEC12A-His; remark: listed apart in the source
[8] = target: T3, recombinant human CLEC12A-His; assay: flow cytometry of yeast-displayed scFv; x axis PE-A binding of Clec12a-his, y axis FITC-A scFv expression; CLEC12A-His concentration not printed on the sheet
[9] = target: B5; assay: flow cytometry, hCLEC12A+ Ba/F3
[10] = target: B5; assay: flow cytometry (gMFI) on CLEC12A+ PL-21 AML cells
[11] = target: T3, recombinant human CLEC12A-His; assay: SPR 37C
[12] = target: T3, recombinant human CLEC12A-His; assay: SPR screening, semi-purified
Protocol: Binding affinities of the 18 semi-purified TriNKETs for hCLEC12A were assessed by SPR in screening.

[13] = target: T3, recombinant human CLEC12A-His; assay: SPR 37C, average
[14] = target: T3, recombinant human CLEC12A-His; assay: SPR, CLEC12A binding
AB0300 = target: T4, AB0300 (Homo sapiens (Human), UniProt P0DOX5 2-448 = IgG part; P0DOX7 1-214, L234A; L235A; P329G); assay: flow cytometry on Ba/F3-hCLEC12A cells, fold over background
T4 construct: AB0237 with LALAPG in both Fc chains
Protocol: The cells were then incubated with a fluorophore conjugated anti-human IgG secondary antibody and were analyzed by flow cytometry. The mean fluorescence intensity (MFI) values were normalized to secondary antibody only controls to obtain fold over background (FOB) values.
100,000 cells were seeded per well into a 96-well plate for FACS staining. Cells were washed with PBS. Cells were incubated in a 1:2000 dilution of live/dead dye in PBS for 15 minutes, then washed with FACS buffer. TriNKETs or mAbs were diluted into FACS buffer, and 50 μl containing diluted TriNKET or mAb was added to cells. Cells were incubated on ice for 20 minutes. After the incubation, cells were washed with FACS buffer. Anti-human IgG-Fc secondary antibody was diluted into FACS buffer, and 50 μl was added per well for detection of the bound TriNKETs or mAbs. Cells were incubated for 20 minutes on ice, then washed with FACS buffer. 50 μl of fixation buffer was added to each well, and cells were incubated for 10 minutes at room temperature. Cells were washed with FACS buffer and resuspended in FACS buffer for analysis with BD FACS Celesta SN #H66034400085, or BD FACS Celesta SN #H66034400160. Cells of interest were identified using FSC vs. SSC plot, and an appropriately shaped gate was drawn around the cells. Within the gated cells, doublet cells were removed by viewing FSC-H vs FSC-A plot. Within the single cell population, live cells were gated. Within the live gate, the mean fluorescence intensity (MFI) of each sample and the secondary-only control was calculated. Fold-over-background (FOB) was calculated as the ratio of test article MFI over secondary-only background MFI. Data were fit to a four-parameter non-linear regression curve using GraphPad Prism 7.0.

[15] = target: B5; assay: flow cytometry on PL21 cells, surface-bound molecule after 2 h at 37 C relative to 20 min on ice
Protocol: Human cancer cell lines HL60 and PL21 expressing human CLEC12A were used to assess surface retention of CLEC12A-TriNKETs after incubation with cells. PL21 or HL60 cells in duplicate plates were incubated with TriNKETs or mAbs as indicated. The first plate was moved to 37° C. for two hours, whereas the second plate was incubated on ice for 20 minutes. After the respective incubation times, cells were washed. Surface bound TriNKET or mAb was detected using a fluorescent secondary antibody for flow cytometry.
100,000 cells were seeded per well into duplicate 96-well plates for FACS staining. Cells were washed with FACS buffer. Test articles were diluted to 40 nM and were added to each of the duplicate plates. The first plate was incubated on ice for 2 hours, while the second plate was moved to 37° C. for two hours. After the incubation, cells were washed with PBS and cells were incubated in a 1:2000 dilution of live/dead dye in PBS for 15 minutes, then washed with FACS buffer. Anti-human IgG-Fc secondary antibody was diluted into FACS buffer, and 50 μl was added per well for detection of the bound TriNKETs or mAbs. Cells were incubated for 20 minutes on ice, then washed with FACS buffer. 50 μl of fixation buffer was added to each well, and cells were incubated for 10 minutes at room temperature. […] Surface retention was then calculated as follows:

Binder: B1
- binding result [1]: no binding
- binding result [2]: no binding
- EC50 [3]: 0.64 nM
- Max MFI [3]: 186 MFI

Binder: B2
- binding result [1]: no binding
- Kd [4]: 1.4 nM
- koff [4]: 0.00157 s⁻¹
- kon [4]: 1.14e+06 M⁻¹ s⁻¹
- EC50 [5]: 0.5 nM
- Kd [6]: 1.1 nM
- EC50 [3]: 0.56 nM
- Max MFI [3]: 217 MFI
- binding result [7]: no binding

Binder: B3
- binding result [8]: binds

Binder: B4
- EC50 [9]: 26.1 nM
- Max MFI [9]: 48000 MFI
- EC50 [10]: 11.7 nM
- Kd [11]: 1.43 nM and 1.42 nM and 1.44 nM
- koff [11]: 0.000587 s⁻¹ and 0.000589 s⁻¹ and 0.000605 s⁻¹ and 0.000596 s⁻¹
- kon [11]: 411000 M⁻¹ s⁻¹ and 415000 M⁻¹ s⁻¹ and 419000 M⁻¹ s⁻¹ and 416000 M⁻¹ s⁻¹
- Kd [12]: 2.94 nM
- koff [12]: 0.00153 s⁻¹
- kon [12]: 520000 M⁻¹ s⁻¹
- Kd [13]: 1.43 nM
- koff [13]: 0.000594 s⁻¹
- kon [13]: 415000 M⁻¹ s⁻¹
- Kd [14]: 1.2 nM

Binder: B5
- binding result (AB0300): binds

Binder: B6
- binding result [15]: binds
